US20260144867A1 (TIGATX, published 2026)

Target: T1, EGFR expressed on A431, A1207 and D562 cell lines (human, UniProt P00533 25-1210)
T1 construct: whole, on cells; also called EGFR-expressing A431 cell line
Test: competitive flow cytometry on A431 cells; blocked ligand: fluorescently labeled EGF (EGF-AL488)

B1: anti-EGFR IgA3.0min DP3 (antibody, V domains shown)
VH: QVQLVQSGAEVKKPGASVKVSCKASGYTFTSHWMHWVRQAPGQGLEWIGEFNPSNGRTNYNEKFKSKATMTVDTSTNTAYMELSSLRSEDTAVYYCASRDYDYDGRYFDYWGQGTLVTVSS
VL: DIQMTQSPSSLSASVGDRVTITCSASSSVTYMYWYQQKPGKAPKLLIYDTSNLASGVPSRFSGSGSGTDYTFTISSLQPEDIATYYCQQWSSHIFTFGQGTKVEIKR
notes: also called anti-EGFR IgA3.0min DS3
IC50 (read off the curve): ~3 µg/mL
